This passage reports koff results from patent US20110053865A1 (published 2011).

Some targets named below: 124H2; 119H1; 119C3; 123F1; 124D2; 12A11; 12D2; 81D1; 119B3; 124H5; 119C9; 121C7; 124G2; 3A7; 3E1; 4F3; 3A11; 3C7; 3G9; 3H5; 1G8; 3D4; 3A10.
What all share (assay): Biacore; eBiosc hIL23
Background: In SPR one partner is held on a chip, and binding of the other changes the refractive index at the surface.

B1: eBiosc hIL23 (ligand)
chain 1: RAVPGGSSPAWTQCQQLSQKLCTLAWSAHPLVGHMDLREEGDEETTNDVPHIQCGDGCDPQGLRDNSQFCLQRIHQGLIFYEKLLGSDIFTGEPSLLPDSPVGQLHASLLGLSQLLQPEGHHWETQQIPSLSPSQPWQRLLLRFKILRSLQAFVAVAARVFAHGAATLSP
chain 2: IWELKKDVYVVELDWYPDAPGEMVVLTCDTPEEDGITWTLDQSSEVLGSGKTLTIQVKEFGDAGQYTCHKGGEVLSHSLLLLHKKEDGIWSTDILKDQKEPKNKTFLRCEAKNYSGRFTCWWLTTISTDLTFSVKSSRGSSDPQGVTCGAATLSAERVRGDNKEYEYSVECQEDSACPAAEESLPIEVMVDAVHKLKYENYTSSFFIRDIIKPDPPKNLQLKPLKNSRQVEVSWEYPDTWSTPHSYFSLTFCVQVQGKSKREKKDRVFTDKTSATVICRKNASISVRAQDRYYSSSWSEWASVPCS
With B1, the koff (commonly the rate constant with which the complex falls apart) with 124H2 was 5.88e-05 s⁻¹; with 119H1, 0.0106 s⁻¹; with 119C3, 0.0334 s⁻¹; with 123F1 it was 0.000377 s⁻¹; with 124D2, 0.000103 s⁻¹; with 12A11, 0.000134 s⁻¹. For the same molecule, the koff in the assay with 12D2 was 0.000125 s⁻¹; with 81D1, 0.0114 s⁻¹; with 119B3, 0.00015 s⁻¹; in the assay with 124H5 it was 3.54e-05 s⁻¹; in the assay with 119C9 it was 0.0012 s⁻¹; with 121C7, 0.000112 s⁻¹. The koff with 124G2 was determined as 9.28e-05 s⁻¹; with 3A7, 0.00507 s⁻¹; with 3E1, 0.00866 s⁻¹; in the assay with 4F3 it was 0.00208 s⁻¹; with 3A11, 0.00513 s⁻¹; with 3C7, 0.0102 s⁻¹. Besides, the koff in the assay with 3G9 turned out to be 0.00672 s⁻¹; with 3H5, 0.00333 s⁻¹; in the assay with 1G8, 0.00223 s⁻¹; with 3D4 it was 0.0062 s⁻¹; with 3A10, 0.00286 s⁻¹.
